Experiments:
Assay in all cases: cell-based or functional assay
[1] = target: HIV Env, isolate 6244_13_B5_4576 (HIV)
[2] = target: HIV Env, isolate PVO.4 (HIV)
[3] = target: HIV Env, isolate CNE17 (HIV)
[4] = target: HIV Env, isolate CAP210.2.00.E8 (HIV)
[5] = target: HIV Env, isolate Ce1176_A3 (HIV)
[6] = target: HIV Env, isolate 6535.3 (HIV)
[7] = target: HIV Env, isolate 20198102_E9_G1 (HIV)
[8] = target: HIV Env, isolate 21492713_B11_E3 (HIV)
[9] = target: HIV Env, isolate 569-F1_37_10 (HIV)
[10] = target: HIV Env, isolate CAP266.2.00_E9_h6 (HIV)
[11] = target: HIV Env, isolate TRP290.2.00_23_6 (HIV)
[12] = target: HIV Env, isolate TRP363.2.00_10_3 (HIV)
[13] = target: HIV Env, isolate 2865_A11.12 (HIV)
[14] = target: HIV Env, isolate CAP308.2.00_E11.35 (HIV)
[15] = target: HIV Env, isolate CAP323.2.00_B6.45 (HIV)
[16] = target: HIV Env, isolate CH064.env (HIV)
[17] = target: MuLV (Neg. Control)
[18] = target: HIV Env, isolate CAP45.2.00.G3 (HIV)
[19] = target: HIV Env, isolate Ce1172_H1 (HIV)
[20] = target: HIV Env, isolate Ce703010054_2A2 (HIV)
[21] = target: HIV Env, isolate 0041.v3.c18 (HIV)
[22] = target: HIV Env, isolate 933.v4.c4 (HIV)
[23] = target: HIV Env, isolate Ce703010131_1E2 (HIV)
[24] = target: HIV Env, isolate Ce0665_F2 (HIV)
[25] = target: HIV Env, isolate Ce2052_G10 (HIV)

B1: ePGDM9 (antibody, V domains shown)
VH: QAQLVQSGPEVRKPGTSVKVSCKNPGNTLTTYDLHWVRQVPGQGLQWMGWISHEGDKKVIVERFKAKVTIDWDRSTNTAYLQLSGLTSEDTAVYYCAKGSKHRLRDYALYDEDGALNWAVDVDYLANLEFWGQGTAVTVSS
VL: DIVLTQSPLSLSVTPGESASISCKSSQSLIHGDRNNYLAWYVQKPGRSPQLLIDLASERASGVPDRFSGSGSRKDFTLKISRVETEDVGTYYCMQGRESPWTFGQGTKVDIK
With B1 the “IC80 (µg/ml) with constrains” value [1] was 50.2 µg/mL, the “IC80 (µg/ml) with constrains” value [2] was 7.7 µg/mL and the “IC80 (µg/ml) with constrains” value [3] was 0.01 µg/mL. For the same binder, the “IC80 (µg/ml) with constrains” value [4] was 0.221 µg/mL, the “IC80 (µg/ml) with constrains” value [5] was 0.089 µg/mL and the “IC80 (µg/ml) with constrains” value [6] was > 100 µg/mL. The “IC50” value [7] was 0.007 µg/mL, the “IC80” value [7] was 0.021 µg/mL and the “IC50” value [8] was > 50 µg/mL. For the same binder, the “IC80” value [8] was > 50 µg/mL, the “IC50” value [9] was > 50 µg/mL and the “IC80” value [9] was > 50 µg/mL. For the same binder, the “IC50” value [10] was 0.008 µg/mL, the “IC80” value [10] was 0.037 µg/mL and the “IC50” value [11] was 0.012 µg/mL. The “IC80” value [11] was 0.06 µg/mL, the “IC50” value [12] was 1.81 µg/mL and the “IC80” value [12] was > 50 µg/mL. The “IC50” value [13] was 0.071 µg/mL, the “IC80” value [13] was 0.258 µg/mL and the “IC50” value [14] was 0.001 µg/mL. For the same binder, the “IC80” value [14] was 0.004 µg/mL, the “IC50” value [15] was 0.004 µg/mL and the “IC80” value [15] was 0.016 µg/mL. For the same binder, the “IC50” value [16] was 0.333 µg/mL, the “IC80” value [16] was 1.62 µg/mL and the “IC50” value [17] was > 50 µg/mL. For the same binder, the “IC80” value [17] was > 50 µg/mL, the “IC50” value [18] was < 0.0006 µg/mL and the “IC80” value [18] was < 0.0006 µg/mL. The “IC50” value [19] was 0.007 µg/mL, the “IC80” value [19] was 0.02 µg/mL and the “IC50” value [20] was 0.005 µg/mL. The “IC80” value [20] was 0.027 µg/mL, the “IC50” value [21] was < 0.0006 µg/mL and the “IC80” value [21] was 0.001 µg/mL. The “IC50” value [22] was > 50 µg/mL, the “IC80” value [22] was > 50 µg/mL and the “IC50” value [23] was < 0.0006 µg/mL. For the same binder, the “IC80” value [23] was 0.004 µg/mL, the “IC50” value [24] was 22.4 µg/mL and the “IC80” value [24] was > 50 µg/mL. The “IC50” value [25] was 0.001 µg/mL and the “IC80” value [25] was 0.005 µg/mL.

— US20230134571A1 (INTERNATIONAL AIDS VACCINE INITIATIVE, published 2023)
